B1: 74804_12A21B: anti-IL1RAP mAb; VH SEQ ID NO:6, VL SEQ ID NO:23, κ light chain (antibody, V domains shown)
VH: QVQLLQSGAEVKKPGSSVKVSCKASGGTFSIYAIDWVRQAPGQGLEWMGGIIPIFGTANSAQKFQGRVTITADKSTSTAYMELSSLRSEDTAVYYCARNGATSDAFDMWGQGTMVTVSS
VL: EIVLTQSPGTLSLSPGERATLSCRASLSVSSNYLAWFQQRPGQAPRLLIHGVSRRATGIPDRFSGSGSGTDFTLTISRLEPEDFAVYYCQQYGSSPLTFGGGTKVEIK
modifications: 74804_12A21B VH and 74804_29D13A VH; 74804_12A21B VL
B2: 74804_43F04A: anti-IL1RAP mAb; VH SEQ ID NO:7, VL SEQ ID NO:22, κ light chain (antibody, V domains shown)
VH: QVQLLQSGAEVKKPGSSVKVSCKASGGTFSIYAIDWVRQAPGQGLEWMGGIIPIFGTENSAQNFQGRITITADKSTNTAYMELSSLRSEDTAVYYCARNGATSDAFDIWGQGTMVTVFS
VL: EIVLTQSPGTLSLSPGERATLSCRASLSVSSNYLAWFQQRPGQAPRLLIYGVSRRATGIPDRFSGSGSGTDFTLTISRLEPEDFAVYYCQQYGSSPLTFGGGTKVEIK
modifications: 74804_43F04A VH; 74804_07K10A VL, 74804_29D13A VL and 74804_43F04A VL

What was measured:
[1] = tested on: IL1-induced downstream signaling (phospho-ERK, AKT, p38, NFκB) in A6L, CAL33, 5637, A549, Colo205, HCC70 cells; assay: IL1 signaling in solid tumor cancer cells, Western blot; type: cell-based; settings: antibody 20 μg/ml
Description: AML patient samples or cancer cells (AML, chronic myelogenous leukemia (CML), pancreatic, head and neck squamous cell carcinoma (HNSCC), bladder, non-small-cell lung carcinoma (NSCLC), colorectal and triple-negative breast cancer (TNBC)) were seeded in 6-well plates (5×10^5 cells/well) and incubated overnight at 37° C./5% CO2 in humified incubator. In experiments conducted in cancer cell lines, cells were washed 2× with PBS and serum-starved for 3 hours. Following, cells were treated with IL1RAP antibodies at concentration of 20 μg/ml and incubated for 1 h at 37° C./5% CO2 in humidified incubator. After 1 h, cells were treated with IL1β (Invivogen, cat: rcyec-hil1b), IL33 (Adipogen, cat: AG-40B-0160-C010) or IL36 cytokines (R@D, cat: 6836IL) at 100 ng/ml and incubated for 15 more minutes. Cells were harvested on ice after 1× wash with cold PBS and were centrifuged for 5 minutes at 5000 rpm at 4° C. Cells were then lysed with NP-40 buffer for 5 minutes on ice and centrifuged for 15 minutes at 15000 rpm at 4° C. Supernatants were collected and protein concentrations were determined by BCA (Thermofisher, Cat #PI23225). […] After 3× washes, ECL was applied (Thermofisher, Cat #32106) and proteins were detected after exposure to autoradioraphic films (Worldwide medical products, Cat #41101001) and protein intensity was quantitated using ImageJ software.

[2] = tested on: AML cells (THP-1); assay: Expression of differentiation markers in AML cells, flow cytometry; type: cell-based, human; settings: 150 μg/ml, 48 hours
Description: Methods: AML cells (THP-1) were seeded at 0.5×10^6/well in 6-well plate and were treated with IL1RAP antibody or IgG control at 150 μg/ml for 48 hours. After 48 hours cells were collected, and expression of differentiation markers was monitored by flow cytometry. Cells were stained for CD14 (BD, cat: 325620) and CD15 (Thermo, cat: 17-01-59-42) differentiation markers and data were analyzed with FlowJo.

[3] = tested on: A549 cells; assay: IL-1-induced IL-6 secretion, ELISA; type: cell-based, human; settings: 66 nM-2 μM, 72 hours, dose-dependent
Description: Methods: A549 cells were seeded on CytoOne® 24 well plate (USA Scientific, Cat #CC7682-7524) at 0.05×10^6/mL and were kept at 37° C./5% CO2 in humified incubator. After 6 hours, the cells were treated with IL-1β (0.5 ng/ml) in the presence or absence of IL1RAP antibodies at 66 nM, 200 nM, 666 nM and 2 μM at 37° C./5% CO2 in humified incubator. Cell culture media was collected after 72 hours and was centrifuged at 4° C. for 5 min. All supernatant samples were analyzed in triplicates. Human IL-6 microplate (R&D Part #890045) was incubated for 2 hours at room temperature with standard, control, or supernatant samples (100 μl) diluted in assay diluent RD1W (100 μl). Samples were aspirated and washed with wash buffer (R&D, cat #895003) four times. Human IL-6 conjugate (200p1) (R&D, cat #890046) was added to each well and incubated for 2 hours at room temperature. Aspiration/wash step was repeated as stated above. Equal volume of substrate color reagent A (R&D, cat #895000) and B (R&D, cat #895001) were mixed, and the substrate solution (200 μl) was added to each well and incubated for 20 minutes at room temperature in the dark. Stop solution (50p1) (R&D, cat #895032) was added to each well and optical density was determined at 450 nm by Cytation™ Cell Imaging Multi-Mode Reader (BioTek).

[4] = tested on: A431 cells; assay: IL-36-induced IL-8 secretion, ELISA; type: cell-based, human; settings: IL-36γ, 72 hours, dose-dependent
Description: Methods: A431 cells were seeded on CytoOne® 24 well plate (USA Scientific, Cat #CC7682-7524) at 0.05×10^6/mL and were kept at 37° C./5% CO2 in humified incubator. After 6 hours the cells were treated with IL-36γ (0.5 ng/ml) in the presence or absence of IL1RAP antibodies at 66 nM, 200 nM, 666 nM and […]. Cell culture media was collected after 72 hours and was centrifuged at 4° C. for 5 min. All supernatant samples were analyzed in triplicates. Human IL-8 microplate (R&D cat #890462) was incubated for 2 hours at room temperature with standard, control, or supernatant samples (1001) diluted in assay Diluent RD1-85 (1001). Samples were aspirated and washed with wash buffer (R&D Part #895003) for four times. Human IL-8 conjugate (200 μl) (R&D cat #890465) was added to each well and incubated for 2 hours at room temperature. Aspiration/wash step was repeated as stated above. Equal volume of substrate color reagent A (R&D, cat #895000) and B (R&D, cat #895001) were mixed, and the substrate solution (200 ul) was added to each well and incubated for 20 minutes at room temperature in the dark. Stop solution (501) (R&D, cat #895032) was added to each well and optical density of each well was determined at 450 nm with Cytation™ Cell Imaging Multi-Mode Reader (BioTek).

Molecule | Inhibition of IL1 signaling (phosphorylation of ERK, AKT, p38 and NFκB) [1] | Expression of CD14 differentiation marker [2] | Expression of CD15 differentiation marker [2] | IL-1-induced IL-6 secretion [3] | IL-36-induced IL-8 secretion [4]
B1 | inhibited IL1 signaling in solid tumor cancer cells | induced the expression | induced the expression | inhibited | inhibited
B2 |  |  |  | inhibited | inhibited

From US20240392013A1, “IL1RAP ANTIBODIES AND USES THEREOF” (STELEXIS THERAPEUTICS, LLC, priority 2021, published 2024)
